Consider 1 substance from US7192720.

Test [1] addresses soluble rhTNFR-1 extracellular domain protein (human) (UniProt P19438). Put plainly: Western blot of soluble hTNFR probed with AF225 pre-mixed with 1:10 BAF225-3 : wild type T7 phage; plaque lift of recovered phage with AF225. On the technique in general: Immunoblotting shows a protein as a band on a membrane.
Test [2] shares this target. Put plainly: Western blot of soluble hTNFR probed with AF225 pre-mixed with 1:10 BAF225-3 : wild type T7 phage; phage eluted from excised bands and titered.

Sequence of UniProt P19438 (P19438 30-211 limits assumed): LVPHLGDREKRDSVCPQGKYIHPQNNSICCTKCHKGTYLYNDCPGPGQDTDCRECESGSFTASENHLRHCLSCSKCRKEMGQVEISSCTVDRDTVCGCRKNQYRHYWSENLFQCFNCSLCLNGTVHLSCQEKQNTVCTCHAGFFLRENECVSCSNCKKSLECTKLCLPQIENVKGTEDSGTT

In the case of “goat anti-hTNFR polyclonal antibody (AF225)”, in test [1], the enrichment of target phage relative to negative phage is 190 fold and the percent of phage recovered from the TNFR band that were target phage is 95%. For the same substance, the fold more phage recovered from the TNFR band than from the negative control in test [2] stood at 100 fold.
